According to patent US20140220040A1 (ARCA BIOPHARMA, published 2014):

T1: Human LRP6-Fc (R&D Systems), recombinant human LRP6 containing the complete extracellular domain (human, UniProt O75581 20-1370)
T1 construct: Bought protein; also called hLRP6; Fc-antigen; not shown: Fc part of the bought fusion protein
T1 sequence: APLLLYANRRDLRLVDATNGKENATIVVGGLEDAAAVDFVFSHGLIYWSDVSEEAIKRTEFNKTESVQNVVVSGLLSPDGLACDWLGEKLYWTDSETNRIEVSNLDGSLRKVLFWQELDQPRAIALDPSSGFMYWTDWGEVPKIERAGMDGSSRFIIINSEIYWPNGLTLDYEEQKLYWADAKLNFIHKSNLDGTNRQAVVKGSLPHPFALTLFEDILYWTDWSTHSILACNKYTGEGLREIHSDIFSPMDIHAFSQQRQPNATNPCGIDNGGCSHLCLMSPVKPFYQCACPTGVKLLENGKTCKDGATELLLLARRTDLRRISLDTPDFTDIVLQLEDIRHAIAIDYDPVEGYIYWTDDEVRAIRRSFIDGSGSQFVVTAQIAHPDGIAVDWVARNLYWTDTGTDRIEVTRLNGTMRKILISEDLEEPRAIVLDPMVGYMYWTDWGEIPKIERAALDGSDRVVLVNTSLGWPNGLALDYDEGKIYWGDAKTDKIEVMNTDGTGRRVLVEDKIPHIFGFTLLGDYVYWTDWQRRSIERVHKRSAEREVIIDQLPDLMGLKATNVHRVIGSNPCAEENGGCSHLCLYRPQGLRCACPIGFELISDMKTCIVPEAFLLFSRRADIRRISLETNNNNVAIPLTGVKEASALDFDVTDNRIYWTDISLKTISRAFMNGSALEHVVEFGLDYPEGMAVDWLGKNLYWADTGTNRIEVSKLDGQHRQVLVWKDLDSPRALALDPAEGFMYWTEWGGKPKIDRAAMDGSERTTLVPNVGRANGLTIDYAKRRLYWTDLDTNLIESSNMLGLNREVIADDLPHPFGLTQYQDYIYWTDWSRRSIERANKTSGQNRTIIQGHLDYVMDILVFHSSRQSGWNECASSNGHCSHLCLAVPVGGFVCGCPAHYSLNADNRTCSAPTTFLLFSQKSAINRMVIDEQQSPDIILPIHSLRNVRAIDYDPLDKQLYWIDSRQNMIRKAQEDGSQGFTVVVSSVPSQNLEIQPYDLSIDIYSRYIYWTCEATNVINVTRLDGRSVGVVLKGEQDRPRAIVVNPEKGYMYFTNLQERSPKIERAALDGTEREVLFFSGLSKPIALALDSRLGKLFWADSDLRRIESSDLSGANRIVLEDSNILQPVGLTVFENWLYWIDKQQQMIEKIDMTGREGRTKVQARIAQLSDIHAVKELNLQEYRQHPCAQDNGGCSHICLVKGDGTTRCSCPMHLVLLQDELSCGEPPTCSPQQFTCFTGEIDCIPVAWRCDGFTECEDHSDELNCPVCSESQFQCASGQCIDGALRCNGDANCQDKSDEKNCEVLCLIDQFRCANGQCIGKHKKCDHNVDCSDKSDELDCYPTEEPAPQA


target: T1, Human LRP6-Fc (R&D Systems), …; experiment: SPR (BIAcore), mAb captured on anti-mouse chip, Fc-antigen injected, 1:1 model
Protocol: Kinetic rate constants (kₐ and kd) were determined using surface plasmon resonance, and affinities (KD) were then calculated from the rate constants (kd/kₐ). Surface plasmon resonance was carried out on a BIAcore system (Biacore International AB, Uppsala, Sweden). Each murine anti-LRP6 mAb sample was diluted 100 fold and captured onto an anti-mouse sensor chip surface. The running buffer contained 10 mM HEPES, 150 mM NaCl, 0.005% Tween-20 and 0.1 mg/ml BSA. Following the capturing step, the Fc-antigen was injected at 45 nM as the highest concentration in a 3-fold dilution series. The association and dissociation phases were monitored for 8 and 60 minutes, respectively. The antigen response data were fit into a 1:1 interaction model.

Row | Binder | Kd [nM] | koff [s⁻¹] | kon [M⁻¹ s⁻¹]
1 | anti-LRP6 monoclonal antibody 77.2 (antibody, V domains shown, Murine hybridoma mAb, protein G purified; also called mAb 77.2; VH1/VL1) VH: QVQLQQSGAELAKPGASVKMSCKASGYTFTSYWMHWVKQRPGQGLEWIGYINPSTGYTEYNQNFRDKATLTADKSSSTANMQLSSLTSEDSAVYYCARTAQYYGSPRGYYAMDSWGQGTSVTVSS VL: DIVMTQAAFSNPVTLGTSASISCRSSKSLLHSNGITYLCWFLQKPGQSPQLLIYLMSNLASGVPDRFSSSGSGTDFTLRISRVEAEDVGVYFCAQNLDLPWTFGGGTKLEI | 0.55 | 3.5e-05 | 63200
2 | anti-LRP6 monoclonal antibody 1281.1 (antibody, V domains shown, Murine hybridoma mAb, protein G purified; also called VH19/VL19) VH: QVQLQQSGAELAKPGASVKISCKASGYTFTSYWMHWVKQRPGQGLEWIGYINPNTGYSEYNQKFRDKATLTANKSSSTANMQLSSLTSDDSAVYYCARTAQYYGSPRGYYAMDSWGQGTSVTVSS VL: DIVMTQAAFSNPVTLGTSASISCRSSKSLLHSNGITYLCWFLQKPGQSPQLLIYQMSNLASGVPDRFSSSGSGTDFTLRISRVEAEDVGVYFCAQNLDLPWTFGGGTKLEI | 1.83 | 8.3e-05 | 45500
3 | anti-LRP6 monoclonal antibody 931.1 (antibody, V domains shown, Murine hybridoma mAb, protein G purified; also called VH13/VL13) VH: DVNLVESGGGLVKLGGSLKLSCAASGFTFSSFYMSWVRQTPEKRLDLVATINTNGGSTYYSDTVKGRFTISRDNAKNTLYLQMNSLKSEDTALFYCVRQPYYGGTMDYWGQGTSVTVSS VL: DIVLTQSPATLSVTPGDRVSLSCRASQSINNNLHWYQQKSHESPRLLIKYASQSISGIPSRFSGSGSGTDFTLSINSVETEDFGMYFCQQTNNWPLTFGAGTKLEL | 1.12 | 6.3e-05 | 56300
4 | anti-LRP6 monoclonal antibody 498.3 (antibody, V domains shown, Murine hybridoma mAb, protein G purified; also called VH7/VL7) VH: DVKLVESGGGLVRLGGSLKLSCAASGFTFSTYYMSWVRQTPEKRLELVATINTNGGSTYYPDTLKGRFTISRDNAKNTLYLQMSSLRSEDTALYYCARQRNYGVAVDSWGQGTSVTVSS VL: DIVLTQSPATLSVTPGDSVSLSCRASQSISNNLHWYQQKSHESPRLLIKYASQSISGIPSRFSGSGSGTDFTLSINSVETEDFGMYFCQQTNNWPLTFGAGTKLER | 0.98 | 5e-05 | 50500
5 | anti-LRP6 monoclonal antibody 213.7 (antibody, V domains shown, Murine hybridoma mAb, protein G purified; also called VH3/VL3) VH: DVKLVESGGGLVKVGGSLKLSCAASGFTFSSYYMSWVRQTPEKRLELVAVINTNGGSTYYSDTVKGRFTISRDNAKNTLYLQMSSLKSEDTALYYCSRQPYYGNPFDYWGQGTTLTVSS VL: DIVLTQSPATLSVTPGDSVSLSCRASQSISNNLHWYQQKSHESPRLLIKYVSQSISGIPSRFSGSGSGTDFTLSINSVETEDFGMYFCQQSNNWPLTFGAGTKLEL | 1.72 | 9.6e-05 | 55600
6 | anti-LRP6 monoclonal antibody 240.8 (antibody, V domains shown, Murine hybridoma mAb, protein G purified; also called VH4/VL4) VH: DVKLVESGGGLVKLGGSLKLSCAASGFTFSSYYMSWVRQTPEKRLELVAAINSNGGSTYYADTMKGRFTISRDNAKNTLYLQMISLKSEDTAFYYCASELAGYGTPFAYWGHGTLVTVSA VL: DIVLTQFPATLSVTPGDSVSLSCRASQSISSNLHWYQQTSHESPRLLIKYASQSISGIPSRFSGTGSGTDFTLSINSVETEDFGMYFCQQSNTWPLTFGAGTKLEL | 6.55 | 4e-05 | 6110
7 | anti-LRP6 monoclonal antibody 923.3 (antibody, V domains shown, Murine hybridoma mAb, protein G purified; also called VH12/VL12) VH: DVKLVESGGGLVKVGGSLKLSCAASGFTFSSYYMSWVRQTPEKRLELVAAININGGSTYYPDTVKGRFTISRDNAKNTLYLQMSSLKSEDTAFYYCASELAGYGTPFAYWGQGTLVTVSA VL: DIVLTQSPATLSVTPGDSVSLSCRASQSISNNLHWYQQKSHESPRLLIKYASQSISGIPSRFSGSGSGTDFTLSINSVETEDFGMYFCQQSNNWPLTFGAGTKLEL | 2.33 | 7.4e-05 | 31600
8 | anti-LRP6 monoclonal antibody 606.4 (antibody, V domains shown, Murine hybridoma mAb, protein G purified; also called VH9/VL9) VH: DVKLVESGGGLVKVGGSLKLSCAASGFTFSSYYMSWVRQTPEKRLELVAVINSNGGSTYYSETVKGRFTISRDNAKNTLYLQMSSLKSEDTALYYCSRQPYYGNPFDYWGQGTTLTVSS VL: DIVLTQSPATLSVTPGDSVSLSCRASQSISNNLHWYQQKSHESPRLLIKYVSQSISGIPSRFSGSGSGTDFTLSINSVETEDFGMYFCQQSNNWPLTFGAGTKLEL | 1.08 | 5.7e-05 | 53200
9 | anti-LRP6 monoclonal antibody 413.1 (antibody, V domains shown, Murine hybridoma mAb, protein G purified; also called VH5/VL5) VH: EIQLQQSGPELVKPGASVKVSCKASGYAFTSYNMYWVKQSHGKGLEWIGYIDPYNGGTDSNQNFKGKATLTVDKSSSTAFMHLNSLTSEDSAVYYCARGGMGLRRDHFDYWGQGTSLTVSS VL: QIVLTQSPAIMSASPGEKVTISCSANSSVRYMFWYQQKPGSFPKPWTYRTSNLASGVPARFSGSGSGTSYSLTISSMEAEDVATYYCQQYHSYPWTFGGGTKLEI | 18 | 8.47e-05 | 4700
10 | anti-LRP6 monoclonal antibody 856.6 (antibody, V domains shown, Murine hybridoma mAb, protein G purified; also called VH11/VL11) VH: QVQLQQSGPELVKPGASVRISCKASGYTFTTYYIHWLKQRPGQGLEWIGWIFPGNVNTKYNAKFKGKATLTADKSSSTAYMQLSSLTSEDSAVYFCAREGLQYYFDYWGQGTTLTVSS VL: QIVLTQSPAIMSASPGEKVTISCSANSSVRFMFWYQQKPGSSPKPLIYRTSNLASGVPARFSGSGSGTSYSLTISSMEAEDAATYYCQQYHSYPWTFGGGTKLEI | 0.95 | 4.5e-05 | 47400
11 | anti-LRP6 monoclonal antibody 537.2 (antibody, V domains shown, Murine hybridoma mAb, protein G purified; also called VH8/VL8) VH: DVQLQESGPGLVKPSQSLSLTCSVTGYSITSGYYWNWIRQFPGDKLEWMGHINYDGRDNYNPSLKNRISITRDTSKNQFFLKLNSVTTEDTATYYCAREFGNFPYYFDYWGQGTTLTVSS VL: QIVLTQSPAIMSASPGEKVTISCSAYSSVRFMFWYQQKPGSSPKPLIYRTSNLASGVSARFSGSGSGTSYSLTISSMEAEDAATYYCQQYHSYPWTFGGGTKLEI | 0.9 | 3.15e-05 | 35200
12 | anti-LRP6 monoclonal antibody 421.1 (antibody, V domains shown, Murine hybridoma mAb, protein G purified; also called VH6/VL6) VH: QVQLQQSGPELVKPGASVRISCKASGYTFTTYYIHWLKQRPGQGLEWIGWIFPGNVNTKYNAKFKGKATLTADKSSSTAYMQLSSLTSEDSAVYFCAREELQYYFDYWGQGSTLTVSS VL: QIVLTQSPAIMSASPGEKVTISCSANSSVRFMFWYQQKPGSSPKPLIYRTSNLASGVPARFSGCGSGTSYSLTISSMEAEDAATYYCQQYHSYPWTFGGGTKLEI | 3.2 | 0.000114 | 35400
13 | anti-LRP6 monoclonal antibody 620.1 (antibody, V domains shown, Murine hybridoma mAb, protein G purified; also called VH10/VL10) VH: EIQLQQSGPELVKPGASVKVSCKASGYAFTSYNMYWVKQSHGKSLEWIGYIDPYNGGTNYNQKFKGKATLTVDKSSSTAYMHLNSLTSEDSAVYYCARGGMGLRRDYFDFWGQGTTLTVSS VL: not shown | 1.73 | 7.7e-05 | 44600
14 | anti-LRP6 monoclonal antibody 1253.12 (antibody, V domains shown, Murine hybridoma mAb, protein G purified; also called VH18/VL18) VH: QVQLQQSGPELVMPGASVRISCKASGYTFTNYYLHWVKQRPGQGLEWIGWIYPGNVNTKYNEKFKGKASLTADKSSSTAYMQLSSLTSEDSAVYFCAREGLQYYFDYWAQGTTLTVSS VL: QIVLTQSPAIMSASPGEKVTISCSANSSVRYMFWYQQKPGSFPKPWIYRTSNLASGVPARFSGSGSGTSYSLTISSMEAEDVATYYCQQYHSYPWTFGGGTKLEI | 2.15 | 7.3e-05 | 34000
15 | anti-LRP6 monoclonal antibody 1293.11 (antibody, V domains shown, Murine hybridoma mAb, protein G purified; also called VH20/VL20) VH: QVQLQQSGPELVKPGASVRISCKASGYTFTTYYIHWLKQRPGQGLEWIGWIFPGNVNTKYNAKFKGKATLTADKSSSTAYMQLSSLTSEDSAVYFCAREELQYYFDYWGQGSALTVSS VL: QIVLTQSPAIMSASPGEKVTISCSANSSVRFMFWYQQKPGSSPKPLIYRTSNLASGVPARFSGSGSGTSYSLTISSMEAEDAATYYCQQYHSYPWTFGGGTKLEI | 57 | 0.000124 | 2200
